Test results from patent US20100278752A1 (RHODE ISLAND BOARD OF GOVERNORS FOR HIGHER EDUCATION, published 2010).

B1: Sialostatin L (other)
chain: MTGVFGGYSERANHQANPEFLNLAHYATSTWSAQQPGKTHFDTVAEVVKVETQVVAGTNYRLTLKVAESTCELTSTYNKDTCLPKADAAHRTCTTVVFENLQGDKSVSPFECEAA
B2: Sialostatin L2 (other)
chain: MELALRGGYRERSNQDDPEYLELAHYATSTWSAQQPGKTHFDTVVEVLKVETQTVAGTNYRLTLKVAESTCELTSTYNKDTCQANANAAQRTCTTVIYRNLQGEKSISSFECAAA
notes: Recombinant protein overexpressed in bacteria; also called second salivary cystatin; novel cystatin

Tests used:
Cathepsin L [1] = target: T1, Cathepsin L (Homo sapiens (Human), UniProt P07711 114-333); assay: cell-based or functional assay
T1 sequence (P07711 114-333 limits assumed, form in doubt): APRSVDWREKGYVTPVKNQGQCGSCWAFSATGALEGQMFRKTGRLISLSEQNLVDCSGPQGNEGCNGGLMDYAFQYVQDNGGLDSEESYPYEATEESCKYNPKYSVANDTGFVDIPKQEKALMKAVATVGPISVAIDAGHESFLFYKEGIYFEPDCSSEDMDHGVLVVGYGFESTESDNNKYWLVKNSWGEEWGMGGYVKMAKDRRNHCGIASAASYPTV

Cathepsin S = assay: cell-based or functional assay
Cathepsin C = assay: cell-based or functional assay
Cathepsin V = assay: cell-based or functional assay
Cathepsin X/Z/P = Cathepsin X/Z/P (Homo sapiens (Human), UniProt Q9UBR2 62-303); assay: cell-based or functional assay
Sequence of Cathepsin X/Z/P (Q9UBR2 62-303 limits assumed, form in doubt): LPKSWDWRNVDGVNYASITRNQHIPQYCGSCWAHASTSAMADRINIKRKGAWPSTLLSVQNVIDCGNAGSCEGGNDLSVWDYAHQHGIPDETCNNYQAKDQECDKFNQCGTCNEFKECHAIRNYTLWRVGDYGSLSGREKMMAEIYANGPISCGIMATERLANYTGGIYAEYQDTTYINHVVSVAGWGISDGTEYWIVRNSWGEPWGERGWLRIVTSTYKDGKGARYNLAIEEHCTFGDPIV

Cathepsin L [2] = target: T1, Cathepsin L; assay: enzyme kinetics for tight binding inhibition: Morrison's equation, Ki* plotted against substrate concentration, y intercept of the linear regression

Binder	IC50 (inhibitor concentration at which 50% inhibition of enzymatic activity is achieved); 20 pM enzyme (Cathepsin L [1])	IC50 (inhibitor concentration at which 50% inhibition of enzymatic activity is achieved); 60 pM enzyme (Cathepsin S)	IC50 (inhibitor concentration at which 50% inhibition of enzymatic activity is achieved); 10 nM enzyme (Cathepsin C)	IC50 (inhibitor concentration at which 50% inhibition of enzymatic activity is achieved); 1 nM enzyme (Cathepsin V)	IC50 (inhibitor concentration at which 50% inhibition of enzymatic activity is achieved); 16 nM enzyme (Cathepsin X/Z/P)	Ki (Cathepsin L [2])
B1	126 pM	0.7 nM	52.2 nM	24.1 nM	937 nM	–
B2	70.9 pM	378 nM	740 nM	28.8 nM	–	0.0655 nM
